Experimental data published in the supplement of paper PMC10567573.

B1: GFOD1 (parent)
chain: EEAEELAKEMSVPFYTSRIDEVLL

Variants of: B1
Assay: protein stability index of a GFP-peptide fusion (GPS, HEK-293T) (PSI 1-6); higher = more stable
Details: c terminus: a fixed tail appended
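Note: lentivirally expressed fusions sorted by FACS into six bins by GFP to DsRed ratio, PSI derived from sequencing read proportions per bin multiplied by bin number.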

Variant | protein stability index
EEAEEDAKEMSVPFYTSRIDEVLL | 4.99
EEAEEEAKEMSVPFYTSRIDEVLL | 4.67
EEAEEFAKEMSVPFYTSRIDEVLL | 3.93
EEAEEHAKEMSVPFYTSRIDEVLL | 4.48
EEAEEIAKEMSVPFYTSRIDEVLL | 3.73
EEAEEKAKEMSVPFYTSRIDEVLL | 4.54
EEAEEMAKEMSVPFYTSRIDEVLL | 4.01
EEAEENAKEMSVPFYTSRIDEVLL | 4.51
EEAEEPAKEMSVPFYTSRIDEVLL | 4.26
EEAEEQAKEMSVPFYTSRIDEVLL | 3.7
EEAEERAKEMSVPFYTSRIDEVLL | 4.2
EEAEESAKEMSVPFYTSRIDEVLL | 4.19
EEAEETAKEMSVPFYTSRIDEVLL | 4.46
EEAEEVAKEMSVPFYTSRIDEVLL | 3.94
EEAEEWAKEMSVPFYTSRIDEVLL | 3.75
EEAEEYAKEMSVPFYTSRIDEVLL | 3.95
EEAEELCKEMSVPFYTSRIDEVLL | 4.06
EEAEELDKEMSVPFYTSRIDEVLL | 4.62
EEAEELEKEMSVPFYTSRIDEVLL | 3.87
EEAEELFKEMSVPFYTSRIDEVLL | 2.99
EEAEELGKEMSVPFYTSRIDEVLL | 4
EEAEELHKEMSVPFYTSRIDEVLL | 4.2
EEAEELIKEMSVPFYTSRIDEVLL | 2.77
EEAEELKKEMSVPFYTSRIDEVLL | 3.32

Variant | protein stability index
EEAEELLKEMSVPFYTSRIDEVLL | 2.93
EEAEELMKEMSVPFYTSRIDEVLL | 3.14
EEAEELNKEMSVPFYTSRIDEVLL | 4.02
EEAEELPKEMSVPFYTSRIDEVLL | 4.5
EEAEELQKEMSVPFYTSRIDEVLL | 4.06
EEAEELRKEMSVPFYTSRIDEVLL | 3.62
EEAEELSKEMSVPFYTSRIDEVLL | 3.6
EEAEELTKEMSVPFYTSRIDEVLL | 3.79
EEAEELVKEMSVPFYTSRIDEVLL | 4.01
EEAEELWKEMSVPFYTSRIDEVLL | 2.39
EEAEELYKEMSVPFYTSRIDEVLL | 3.07
EEAEELAAEMSVPFYTSRIDEVLL | 3.66
EEAEELACEMSVPFYTSRIDEVLL | 2.9
EEAEELADEMSVPFYTSRIDEVLL | 3.94
EEAEELAEEMSVPFYTSRIDEVLL | 4.17
EEAEELAFEMSVPFYTSRIDEVLL | 2.25
EEAEELAGEMSVPFYTSRIDEVLL | 4.1
EEAEELAHEMSVPFYTSRIDEVLL | 3.66
EEAEELAIEMSVPFYTSRIDEVLL | 2.76
EEAEELALEMSVPFYTSRIDEVLL | 2.46
EEAEELAMEMSVPFYTSRIDEVLL | 3.29
EEAEELANEMSVPFYTSRIDEVLL | 3.39
EEAEELAPEMSVPFYTSRIDEVLL | 3.59
EEAEELAREMSVPFYTSRIDEVLL | 4.04

Variant | protein stability index
EEAEELASEMSVPFYTSRIDEVLL | 2.89
EEAEELATEMSVPFYTSRIDEVLL | 3.89
EEAEELAVEMSVPFYTSRIDEVLL | 2.85
EEAEELAYEMSVPFYTSRIDEVLL | 2.86
EEAEELAKCMSVPFYTSRIDEVLL | 2.55
EEAEELAKDMSVPFYTSRIDEVLL | 3.93
EEAEELAKFMSVPFYTSRIDEVLL | 3.12
EEAEELAKHMSVPFYTSRIDEVLL | 3.2
EEAEELAKIMSVPFYTSRIDEVLL | 2.15
EEAEELAKKMSVPFYTSRIDEVLL | 2.66
EEAEELAKLMSVPFYTSRIDEVLL | 2.16
EEAEELAKMMSVPFYTSRIDEVLL | 3.03
EEAEELAKNMSVPFYTSRIDEVLL | 3.71
EEAEELAKPMSVPFYTSRIDEVLL | 3.01
EEAEELAKQMSVPFYTSRIDEVLL | 3.17
EEAEELAKRMSVPFYTSRIDEVLL | 2.7
EEAEELAKSMSVPFYTSRIDEVLL | 2.92
EEAEELAKVMSVPFYTSRIDEVLL | 3.1
EEAEELAKWMSVPFYTSRIDEVLL | 2.62
EEAEELAKYMSVPFYTSRIDEVLL | 2.94
EEAEELAKEASVPFYTSRIDEVLL | 4.41
EEAEELAKECSVPFYTSRIDEVLL | 4.53
EEAEELAKEDSVPFYTSRIDEVLL | 4.7
EEAEELAKEFSVPFYTSRIDEVLL | 3.62

Variant | protein stability index
EEAEELAKEGSVPFYTSRIDEVLL | 4.22
EEAEELAKEHSVPFYTSRIDEVLL | 4.53
EEAEELAKEISVPFYTSRIDEVLL | 3.57
EEAEELAKEKSVPFYTSRIDEVLL | 4.03
EEAEELAKELSVPFYTSRIDEVLL | 2.62
EEAEELAKEPSVPFYTSRIDEVLL | 4.5
EEAEELAKEQSVPFYTSRIDEVLL | 4.26
EEAEELAKERSVPFYTSRIDEVLL | 3.81
EEAEELAKESSVPFYTSRIDEVLL | 4.12
EEAEELAKETSVPFYTSRIDEVLL | 4.03
EEAEELAKEVSVPFYTSRIDEVLL | 3.84
EEAEELAKEWSVPFYTSRIDEVLL | 4.5
EEAEELAKEYSVPFYTSRIDEVLL | 3.63
EEAEELAKEMAVPFYTSRIDEVLL | 3.51
EEAEELAKEMCVPFYTSRIDEVLL | 3.36
EEAEELAKEMDVPFYTSRIDEVLL | 4.5
EEAEELAKEMEVPFYTSRIDEVLL | 4.74
EEAEELAKEMFVPFYTSRIDEVLL | 2.72
EEAEELAKEMGVPFYTSRIDEVLL | 2.97
EEAEELAKEMHVPFYTSRIDEVLL | 4.04
EEAEELAKEMIVPFYTSRIDEVLL | 3.29
EEAEELAKEMKVPFYTSRIDEVLL | 3.17
